Reference: US20180360879A1 (CANCURE, published 2018)

Target: T1, murine 4-1BBL expressed on the surface of B16-F10 and B16-F10/4-1BBL melanoma cells (mouse, UniProt P41274 1-309)
T1 construct: whole, on cells; also called 4-1BB ligand; mouse 4-1BBL
T1 sequence (looked up): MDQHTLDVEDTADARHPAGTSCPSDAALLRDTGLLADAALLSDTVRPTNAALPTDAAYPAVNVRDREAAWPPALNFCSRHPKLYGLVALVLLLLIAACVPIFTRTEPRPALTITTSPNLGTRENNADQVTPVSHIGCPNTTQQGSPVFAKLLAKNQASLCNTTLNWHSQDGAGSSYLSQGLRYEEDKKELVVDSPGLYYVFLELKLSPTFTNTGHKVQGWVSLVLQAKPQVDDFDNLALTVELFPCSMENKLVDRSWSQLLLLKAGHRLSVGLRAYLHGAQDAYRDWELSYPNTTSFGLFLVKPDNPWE
Assay: flow cytometry; cells incubated with the chimera, detected with PE-conjugated IgG Fcγ Ab
Protocol: FIG. 2. B16-F10-4-1BBL cells express functional 4-1BBL binding to 4-1BB. Cells were incubated with 41BB/TNFRSF9/Fc chimera and stained using a PE-conjugated IgG Fcγ Ab to detect binding to 4-1BBL, measured using the FACSCalibur flow cytometer. The black and the green histograms represent the unstained control samples of B16-F10 and B16-F10-4/1BBL sorted cells respectively. The red and the purple histograms show the B16-F10 and B16-F10/4-1BBL cells respectively stained only with the IgG Fcγ PE secondary Ab. The blue histogram represents the B16-F10 cells incubated with the 4-1BB/TNFRSF9/Fc Chimera and stained with the IgG Fcγ PE secondary Ab. The maroon histogram depicts populations of cells further subjected to sorting for 4-1BBL, re-expanded in culture before immunostaining with the 41BB/TNFRSF9/Fc chimera and the IgG Fcγ PE secondary Ab
To further test that the 4-1BBL expressed on the B16-F10/4-1BBL cells was intact and functional, an additional assay was performed for the binding of 4-1BBL on the cells to its receptor, 4-1BB. […]
Transfection efficiency was determined by staining B16-F10 sublines with antibodies to detect the cell surface markers, B7.1 and 4-1BBL. […] The presence of both of these cell surface molecules were detected using either flow cytometer. […]

B1: recombinant mouse 4-1BB/Fc chimera (Fc fusion, UniProt P20334 24-187, looked up)
chain: VQNSCDNCQPGTFCRKYNPVCKSCPPSTFSSIGGQPNCNICRVCAGYFRFKKFCSSTHNAECECIEGFHCLGPQCTRCEKDCRPGQELTKQGCKTCSLGTFNDQNGTGVCRPWTNCSLDGRSVLKTGTTEKDVVCGPPVVSFSPSTTISVTPEGGPGGHSLQVL
notes: Bought reagent; It calls it a 'primary antibody', but it is the receptor 4-1BB fused to Fc; also called 4-1BB/TNFRSF9/Fc Chimera; 41BB/TNFRSF9/Fc chimera; not shown: Fc part of the chimera
B1: binds.
